Reference: US12624097B2, “Nucleic acids, vectors, and cells that encode anti-Sp17 antibodies and other Sp17 binding proteins” (Medicovestor, Inc., priority 2023, dated 2026)
“Also recorded” adds a separate entry of the source.

Experiments:
33 normal human tissues = assay: Immunohistochemistry on a normal tissue microarray (specificity); conditions: 33 normal tissues, 2-3 human donors per tissue
Description: The specificity of the chAB2 antibody for Sp17 was determined with immunohistochemistry on a normal tissue microarray, which consisted of 33 normal tissues obtained from 2-3 human donors per tissue. The normal tissues included brain, eye, adrenal gland, hypophyseal, thyroid, parathyroid, tonsil, thymus, spleen, heart, lung, larynx, esophagus, stomach, small intestine, colon, liver, pancreas, salivary gland, kidney, bone, skeletal, skin, peripheral nerve, mesothelial, breast, ovary, endometrium, cervix, testis, and prostate.

Sp17 protein = molecular target: T1, Sp17 protein (Homo sapiens, UniProt Q15506); assay: Western blot detection of Sp17 protein; format: binding
T1 sequence (Q15506 1-151): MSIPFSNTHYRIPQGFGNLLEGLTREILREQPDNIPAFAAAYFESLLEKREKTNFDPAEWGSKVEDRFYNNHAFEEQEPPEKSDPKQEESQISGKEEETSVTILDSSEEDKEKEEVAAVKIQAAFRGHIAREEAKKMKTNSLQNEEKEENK
Description: The nucleotide sequences encoding the VH and VL regions of Example 1 were cloned into a […] heavy chain gene and a mouse kappa light chain gene, respectively, and expressed in CHO-S cells to produce a mouse-human chimeric antibody, which was named chAB2. Successful generation of the antibody was confirmed by SDS-PAGE and western blotting using anti-mouse heavy and light chain antibodies and recombinant Sp17 protein (FIGS. 2 & 3).
The VH and VL nucleotide sequences of Example 1 were cloned into a human IgG4 heavy chain gene and a human kappa light chain gene, respectively. A Ser228Pro mutation was introduced in the heavy chain to reduce non-specific Fc receptor gamma binding. The resultant antibody was named SP17-AB2. Successful cloning was confirmed by sequence analysis. The amino acid sequences of the heavy chain and light chain are shown in Table 4, and the Ser228Pro mutation is underlined in SEQ ID NO: 11.

binding to Sp17 protein by western blot (Sp17 protein): Sp17 protein was detected
B1: chAB2: mouse-human chimeric anti-Sp17 monoclonal antibody; human VH/VL (SEQ ID NO: 3, 4) with mouse IgG2a heavy and mouse kappa light chain (antibody, V domains shown)
VH: QVQLQQSGAEVKKPGSSVKVSCKASGGTFSSYAISWVRQAPGQGLEWMGRIIPILGIANYAQKFQGRVTITADKSTSTAYMELSSLRSEDTAVYYCARPSEEVVAAYGAFDIWGQGTTVTVSS
VL: EIVLTQSPLSLPVRPGEPASISCRASQSLLRSDGFNYLDWYLQKPGQSPQLLVYLGSNRASGVPDRFSGSGSGTDFTLKISRVEAEDVGVYYCMQAVQTPYIFGQGTKLEIK
modifications: mouse IgG2a heavy and mouse kappa constant regions
binding to normal tissues (cross-reactivity) (33 normal human tissues): bound to testis and did not bind to normal tissues; also recorded: lack detectable cross-reactivity
